Data taken from a protein production outcome set (Wang et al. 2014).

Test: label from the status in PepcDB records

Sequence	protein production
MRVDELRVDERIKSTLKERGIESFYPPQAEALKSGILEGKNALISIPTASGKTLIAEIAMVHRILTQGGKAVYIVPLKALAEEKFQEFQDWEKIGLRVAMATGDYDSKDEWLGKYDIIIATAEKFDSLLRHGSSWIKDVKILVADEIHLIGSRDRGATLEVILAHMLGKAQIIGLSATIGNPEELAEWLNAELIVSDWRPVKLRRGVFYQGFVTWEDGSIDRFSSWEELVYDAIRKKKGALIFVNMRRKAERVALELSKKVKSLLTKPEIRALNELADSLEENPTNEKLAKAIRGGVAFHHAGLGRDERVLVEENFRKGIIKAVVATPTLSAGINTPAFRVIIRDIWRYSDFGMERIPIIEVHQMLGRAGRPKYDEVGEGIIVSTSDDPREVMNHYIFGKPEKLFSQLSNESNLRSQVLALIATFGYSTVEEILKFISNTFYAYQRKDTYSLEEKIRNILYFLLENEFIEISLEDKIRPLSLGIRTAKLYIDPYTAKMFKDKMEEVVKDPNPIGIFHLISLTPDITPFNYSKREFERLEEEYYEFKDRLYFDDPYISGYDPYLERKFFRAFKTALVLLAWINEVPEGEIVEKYSVEPGDIYRIVETAEWLVYSLKEIAKVLGAYEIVDYLETLRVRVKYGIREELIPLMQLPLVGRRRARALYNSGFRSIEDISQARPEELLKIEGIGVKTVEAIFKFLGKNVKISEKPRKSTLDYFLKS	failed
MNITVNDRECSAQVGDRLLDIARANHSHIGYFCGGNAICQTCYVRVLEGAELLSPMSDAEKAMLSDKLIKEGTRMACQTLIEKPGKITVLSEVEAAKRLTLENPLEHHHHHH	not failed
ILTENTPYFEQLSVPQRSVGRIIGRGGETIRSICKASGAKITCDKESEGTLLLSRLIKISGTQKEVAAAKHLILEKVSEDEELRKRIAHSA	not failed
MTDVRHCPAVLIAAPASGQGKTTVTAALARLHRNRGRKVRVFKCGPDFLDPMILERASGAAVYQLDMWMVGEQESRRLLWEAAGEADLILIEGVMGLFDGTPSSADLARHFGVPVLGVIDGTAMAQTFGALALGLARYQPDLPFAGVLANRVGTLRHAQLLEGSLTEGLRWYGALSRETDIELPSRHLGLVQASELNDLDLRLDAAAEALASSCQVELPPAVSFAAPTPVACAPLLKGVRIAVARDEAFAFTYGASLDLLRAMGAQLSFFSPIHDTQLPDADSLYLPGGYPELHHQALARNSSMLQAIRAHHAAGKPLLAECGGMLYLLDSLTDVEGQRAELLGLLPGDAVMQKRLAALALQAVDLPEGSLRGHTYHHSLTSTELLPIARGLSPNGGRGAEAVYRQGRMTASYVHFYFPSNPAAVAALFAPGAPVEPVLAEGVAGELEHHHHHH	failed
MEGNFIVARFDKNTSFFEDLEEVCNKHGVKAGTVVWAIGMLKDFEVGYWNGQDYEKETFRERLEIVSLHGTIAENDPKYHIHASGARSNHMIVGGHLFSATVDPLIEIQIMKIEGPKMTRVQDPSDKLFKLKIE	failed
MLTLAPCGRGPCAARGEGASRPVLTKSHSSSRLKPTSAGQHPGAGRGPLAWGMTEPVPVAPFPSVFGGVQQLRPDVFRVRLPLVNIFLMGVPGGDWVLVDTGMPGTAGLIRQAAAQVYGARAPQAIVLTHGHFDHIGALHALLAEWNVPVYAHPDELPHLTGEVPYRFPDPTVGGLMSLTSPLFLPGPYDFRPQVRTLPEDGTVPELPGWRWVHTPGHTEGHVSLWREADRLLIAGDAVVTTPQETVPGALASTPTVLRRPPAYYTPNWNATRDSVRTLAALRPALVATGHGHPLTDDSLGDALTRLADDFDHDPNGRPAHGWYLGHPAPMQKPRPGEPDPMRTLFLGALGAAGALWLLGRRRR	failed
MAKRGREAKSAERTRQLAESEARLRLMADAAPFPLAMNRLAGGELIYANARAEELFGARLRPDRPLRVQDFYAEPAEREKVARALLEGRAVRDREVRLRDAGGRPFWALVSCELVQSGETWYVINGVNDISERKRLEQSLQDANAALRSHLREIELLQQGLREQALRDPLTGLFNRRHLDDILPRVLAHMLALHREVAVLMVDADHFKRINDTYGHRCGDAVLTALGACLSDHFRSGDIVCRYGGEEFFVLLPGATLEAAYAKAEGLRRAVGERPMEALGHSLAVTLSIGLALCPLHGSDAESVVRAADEALYQAKRQGRDRVCVAARLQSLLS	failed
MEGIMNPYTALPTPQQLLAIEQSVYSSDPFRQGLTPPQMPGDHMHPYGAEPLFHDLDSDDTSLSNLGDCFLATSEAGPLQSRVGNPIDHLYSMQNSYFTS	not failed
MTKANWTLSDARDTYAIEHWSDGYFNIAPEGEVVVCPQRGSVEGGVSIAAIARGVRAEGLSLPVLMRFPHILHDRVRLLTSAFGKARAAYHYGAGYTPVYPIKVNQQRNVIENILRAGGVGLEAGSKSELLAILALAESGTIICNGYKDRAYIRLALIGSRLGLRVFIVVEKLSELELVVSESEALGIAPQLGVRIRLSSISAGKWQNSGGEKSKFGLHAGEILKFLKRLERAGGLGWVRLMHFHMGSQVANINDVKTALREASRYYAELRRLGAPVDHVDVGGGLGIDYEGTHSVSDCSINYSVDEYAHSIVRAFSELCAEQGLPQPDLITEAGRAMSAHHAVLVTNVVDIEAATYDASPVSASVAQPLKDLEDLLRRVDSESVLGIYHDAEFDLAETRTMYVQGKIGLDQLAEAERLHATLCREVQQRLDIRLRAHRAVLDELNERLADKLFCNFSVFQSIPDAWAIDQIFPVMPLQRLGEEPTRRAVIQDMTCDSDGRINAYIDRQSIENTLRMHAPAPGEPYLIGFFLVGAYQEILGDMHNLFGDTHSVDVELDGAGGYTFTHTRRGDGADDLLRYVHIDPDELERSYRKKLIEADIPMHQRKQYESELIAGLSNYTYLEELEHHHHHH	not failed
MFQALIDVVLPVFLVIGAGYCTTFAGYFKPEHIDGVMRFTQGFAIPCLLFRAIANLDLNAGFDPALLASFYMAAFLCFTAGLLGARLLFNRDWEDSVAIGFCCLFSNSVLLGLAITERAYGPENLVGNYAIIAIHSPFCYALGITTMEVIRNRGRGGRKMVTSVLNAMFRNVLILGIALGFIVNLSGISLPQIADDALSLIIRAALPGALFALGGVLVQYRPEGDTRVIVYICAISLLLHPGLVWLFGSALALPQDLFRSGVLNAAMAPGFNAYIFANIYGRAKRVAASSVLVATAASILTVWMWLMLLG	failed
MLDPARSFDIIGDVHGCALTLERLLDALGYKRVAGVWRHPRRQALFLGDIVDRGPRIREALHIVHDMVEAGQAFCIMGNHEYNALGWVTPALPGSGKAYVREHTPRHARLIDETLTQFAQHPGDWHDFVNWFYQLPLFIDAGRFRLVHACWDPRLIEPLRQQYPDGRIDEHFIQASAVSGSFADTVCNRLLRGTDMRLPDGLTLTGGDGLTRAFFRTKFWEEDPKTYGDIVFQPDALPEEVASTPLSHSQKNALLRYDEDQPMLFVGHYWRSGRPAPIRANLACLDYSAVLYGKLVAYRLDDETRIDPHKFVWVDVDRPQANQLEHHHHHH	not failed
MSSPNPEDVPRRPEPEPSSSNKKKKKRKWLRQEASIQALTRAGHGALQAGQNHEALNNFQRAFLLASKAPQTRDTPVLQACAFNLGAAYVETGDPARGLELLLRAHPEEKAQGRRHGDQCFNVALAYHALGELPQALAWYHRALGHYQPQGDQGEAWAKMGACYQALGQPELAAHCLQEASQAYAQERQLRAAALALGAAAGCMLKSGRHRVGEVVQVLEKSRRLAERSTERRLLGHLYNDLGLGYSQLQLFPLAVEAFLQALPLCWVPGEQATVLRNLGMAHNALGNYQEAREFHQKAADLHGSVGQRWEQGRSFGSLAFALSQLGDHKAARDNYLHALQAARDSGDMKGQWQACEGLGAAAARLGQYDQALKYYKEALAQCQKEPDSVRERLVAKLADTVRTRLAQVGLVQTHTLTSAPGRLQAPGGASQAEGTPAKAGSSTAGVQHRSSSGWEDEEFEEGHQKKKEERSANVPVRAGPGRPELCFLPGTVNHSHHLASSCPTFTKHTPCRGTVLGKASIYSPGPRAHLPFVGPGPPRAEYPSILVPNGPQANRSSRWPRESLSRSRQRRPMESGICTIV	failed
MSLIPKVSVIVPIYNVEKYLDQCVQALLAQTLSDIEIILIDDESPDNCPKICDDYAAQYPNIKVIHKKNAGLGMACNSGLDVATGEYVAFCDSDDYVDSDMYMTMYNVAQKYTCDAVFTGLKRITMAGIPTGTVTHQKEFKLYKNKNEIHTLLKDLIASDPYAREERAIQVSAKVVLYRRNLIEKKHLRFVSERILPSEDLIFNVDVLANSNIVCVLPQTFYNYRTNPISISEGHHHHHH	not failed
LFQRVLYATDFSENATRAFDAFQYLRHATQEATLVHVESPKDATSEADPAEQLASLADTLSQWDIETNVEVRRGDPAEEILDVEAAVTPTTTLVGSRGQSRMRRLLLGSVSEDIIAQATGNVYLVPPP	failed
MTSHKPYWPIGVFTSVDAGLGVHLEVAQDLKVPTVQVHAPHPHTRTREHAQAFRAKCDAAGIQVTVIFGGFDGESYADIPTTARTVGLVPLETRASRVAEMKEISDFASWVGCPAIGLHIGFVPESSSPDYSELVRVTQDLLTHAANHGQAVHLETGQESADHLLEFIEDVNRPNLGINFDPANMILYGTGNPIEALRKVARYVRSIHCKDALWAPVNERGKSWGQEVALGTGDVGMEAYLTTLWEIGYRGPLTIEREIPHDPVQQKKDLASALELLTGLRKKIANC	not failed
MNYQKMNYQKLGVDILALSGGKQNVSKLTHCATRLRFEFNDSHAVQAEAIAKLPGVISVVDRGGQFQVVIGNDVQITYRAILNEIGEMNGQRTSDKNKQQKKGGIFSQIISVISTTFTPVIPAITGAGMIKALLAILKLTGLISADSTTYRLLDTISDAAFFFLPVLLAYGASIKFACNPILAMTIAGALLHPNLAQLLASGGPISFIGIPVRLADYAGSVLPIILTVWIMSYIERFAEKISPSMITFFTKPMIVLLFTAPLALVVIGPFGIFLNDLVASGAAIIDGKASWLIPMLMGGLQPFLVITGTAWAMTPIATSQLTRNGFEMINGPGMLASNIAQGAATLCVAFKTKNKNLKQLASSAGFTALLGITEPSLYGVTLKLKKPLIAAMIGGGCAGIYAGLAGLVRYAFVSPGLAALPAFIGENPMNIVHALITCAIAIVVTFALTWIMGFDDPVDETDNAQTDSTQSDARQSAPAANTTQKSQATENHAEPQTILSPLSGKLVALSDINDDVFSQGLLGQGVAIIPDNGEVVAPVSGEIITFLESKHAVGIRTDSGLELLIHVGLDTVNLNGKHFTGYIKPGDRVTAGDRLISFDLHEITRLGYDPITPVVIINSDEYASVVCTVPQPIAPMDTIINVNA	failed
MIKAILIFNNHGKPRLCKFYQHYSEDTQQQIIRETFHLVSKRDENVCNFLEGGLLIGGSDNKLIYRHYATLYFVFCVDSSESELGILDLIQVFVETLDKCFENVCELDLIFHVDKVHNILAEMVMGGMVLETNMNEIVTQIDA	not failed
MGGHPQLRLVKALLLLGLNPVSASLQDQHCESLSLASNISGLQCNASVDLIGTCWPRSPAGQLVVRPCPAFFYGVRYNTTNNGYRECLANGSWAARVNYSECQEILNEEKKSKVHYHVAVIINYLGHCISLVALLVAFVLFLRLRPGCTHWGDQADGALEVGAPWSGAPFQVRRSIRCLRNIIHWNLISAFILRNATWFVVQLTMSPEVHQSNVGWCRLVTAAYNYFHVTNFFWMFGEGCYLHTAIVLTYSTDRLRKWMFICIGWGVPFPIIVAWAIGKLYYDNEKCWFGKRPGVYTDYIYQGPMILVLLINFIFLFNIVRILMTKLRASTTSETIQYRKAVKATLVLLPLLGITYMLFFVNPGEDEVSRVVFIYFNSFLESFQGFFVSVFYCFLNSEVRSAIRKRWHRWQDKHSIRARVARAMSIPTSPTRVSFHSIKQSTAV	failed
MGITDGVVVDLGGGTTGISILEKGKVIFVADEPTGGTHMTLVLAGSYGIDFETAEDIKTDKKKEKEVFVQITPVLQKMAAIVKKYIKDYKVKDVFLVGGACSFDGSESIFERELGLNIYKLEHHHHHH	failed
MYKLSLVIKSLIIALLTTSLLSAGFQLRGDYLLDDDLQTLYVSSSDIHGELTRLVKLNLTRNQVNVLKHSKADVPELRILSDKLDRRTLSLFSNGQVAEYELIYSVHYQVRFTGEDARDFRFELYRDYQDDPNIALAKSRELSLLLSEMRTSAADKILRDLARIQRLEHHHHHH	failed
